We go through 9 molecules from US20220017616A1 (published 2022).

Changes are numbered by the printed parent chain.

Sequences and labels used below:
T1: human CD112R (N81D)
T1 chain: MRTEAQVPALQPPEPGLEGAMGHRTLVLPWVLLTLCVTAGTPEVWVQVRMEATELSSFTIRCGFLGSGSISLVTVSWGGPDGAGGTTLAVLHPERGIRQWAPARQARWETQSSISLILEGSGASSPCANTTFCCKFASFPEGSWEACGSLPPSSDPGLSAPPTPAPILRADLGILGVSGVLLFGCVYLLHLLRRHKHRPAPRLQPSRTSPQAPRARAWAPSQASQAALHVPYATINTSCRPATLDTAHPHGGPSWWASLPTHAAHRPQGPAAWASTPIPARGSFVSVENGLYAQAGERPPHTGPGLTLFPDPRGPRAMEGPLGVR

T2: human TIGIT (UniProt Q495A1 22-244)
T2 chain: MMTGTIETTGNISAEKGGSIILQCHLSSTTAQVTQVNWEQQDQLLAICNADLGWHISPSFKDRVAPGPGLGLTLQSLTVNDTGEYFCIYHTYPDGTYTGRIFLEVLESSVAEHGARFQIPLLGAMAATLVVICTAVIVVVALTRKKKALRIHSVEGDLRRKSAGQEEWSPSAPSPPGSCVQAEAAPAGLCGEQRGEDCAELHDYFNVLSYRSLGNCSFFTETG

B1: human CD112R (receptor)
chain: TPEVWVQVRMEATELSSFTIRCGFLGSGSISLVTVSWGGPNGAGGTTLAVLHPERGIRQWAPARQARWETQSSISLILEGSGASSPCANTTFCCKFASFPEGSWEACGSLPPSSDPGLSAPPTPAPILRADLAGILGVSGVLLFGCVYLLHLLRRHKHRPAPRLQPSRTSPQAPRARAWAPSQASQAALHVPYATINTSCRPATLDTAHPHGGPSWWASLPTHAAHRPQGPAAWASTPIPARGSFVSVENGLYAQAGERPPHTGPGLTLFPDPRGPRAMEGPLGVR
B2: 29E10 (antibody, V domains shown)
VH: EVQLVESGGGLVQPGGSLRLSCAASGFTFRNYDMHWVRQVPGKGLEWVSDIGNSGETYYLGSVKGRFTISRENAKNSLYLQMNSLRAGDTAVYYCVREEFGYGMDVWGQGTTVTVSS
VL: DIQMTQSPSSLSASVGDRVTITCRASQGIRNDLGWYQQKPGKAPKRLIYAASSLQSGVPSRFSGSGSGTEFTLTISSLQPEDFATYYCLQHNSYPLTFGGGTKVEIKR
B3: 1E1.016 (antibody, V domains shown)
VH: QVQLVQSGAEVKKPGASVKVSCKASGYTFTDYYIYWVRQAPGQGLEWMGWINPNAGGTNYAQKFQGRVTMTRDTSISTAYIELSRLRSDDTAVYYCAREDNFNGMDVWGQGTTVTVSS
VL: B2 VL with H91L, S93A
B4: 24F1 (antibody, V domains shown)
VH: EVQLVESGGGLVQPGGSLRLSCAASGFTFSRDDMHWVRQATGKGLEWVAGIDNAGDTYYPGSVKGRFTISRENAKNSLYLQMNSLRAGDTAIYYCAREGQWPYGMDVWGQGTTVTVSS
VL: B2 VL with A50S, P59S, H91S
B5: 24F1.001 (antibody, V domains shown)
VH: B4 VH with D56E
VL: B2 VL with A50S, P59S, H91S
B6: 55G7.041 (antibody, V domains shown)
VH: EVQLVESGGGVVQPGGSLRLSCAASGFTFSSYGMHWVRQAPGKGLEWVALIWFDESNIYYADAVKGRFTISRDNAKNTLYLQMNSLRAEDTAVYFCARGYDLLTGYYNFDFWGQGTLVTVSS
VL: QAGLTQPPSVSKGLRQTATLTCTGNANNVGNRGAAWLQQHQGHPPKLLSYRNNNRPSGISERLSASRSGNTASLTITGLQPEDEADYYCSAWDSSLSAWVFGGGTKLTVLG
B7: 66H9.009 (antibody, V domains shown)
VH: QVQLQESGPGLVKPSETLSLTCTVSGGSISSVYFYWNWIRQPPGKGLEWIGYIYYSGGTYYNPSLRSRVTISVDTSKNQFSLKLNSVTAADTAVYYCARGSIAAGGGYFYYNDMDVWGQGTTVTVSS
VL: EIVLTQSPDFQSVTPKEKVAITCRASQSIGSSLHWYQQKPDQSPKPLIKYVSQSFSGVPSRFSGSGSGTDFTLTINSLEAEDAATYYCHQSSSLPLTFGGGTKVEIKR
B8: 58A7.003.008 (antibody, V domains shown)
VH: QVQLQESGPGLVKPSETLSLTCTVSGGSISSGGYYWNWIRQPPGKGLEWIGYIYYSGSTFYNPSLKSRVTISVDTSKNQFSLKLSSVTAADTAVYYCARAPRYNWNYGWFDPWGQGTLVTVSS
VL: EIVLTQSPGTLSLSPGERATLSCRASQQVSSTYLAWYQQKPGQAPRLLFYGASSRATGIPDRFSRSGSGTDFTLTISRLEPEDFAVYYCQQYDVSPWTFGQGTKVEIKR
B9: 43B7.002.015 (antibody, V domains shown)
VH: QVQLQESGPGLVKPSETLSLTCTVSGGSISSGGYYWSWIRQHPGKGLEWIGYIYYRGGTYYNPSLRSRVTMSVDTSKNQFSLRLSSVTAADTAVYYCARTIFGVIILDNWGQGTPVTVSS
VL: DIQMTQSPSSLSASVGDRVTITCRSSQSISSYLNWYQQKPGRAPKLLIYAASSLQSGVPSRFSGSGSGTDFTLTISSLQPEDFASYYCQQSYTTPPTFGGGTKVEIKR

The target of one test is 31B3.001. Kind of test: Biacore SPR.
The term Kd denotes the constant that tells how readily two partners part at equilibrium. Low values mean a tighter complex, high ones a looser complex. As for B1, the Kd stood at 2290 pM.

The target of a further test is T1, human CD112R (N81D). Kind of test: Biacore SPR. Background: Surface plasmon resonance follows binding to a sensor surface in real time, without labels.
Consider B2, for which binding was characterised by a dissociation constant (Kd) of 126 pM.
The same measure, in the same setting: the value for B3 was 250 pM; that for B4 was 50.6 pM.
Turning to B5, the dissociation constant Kd was found to be 59.4 pM.

A further test concerns the target T2, human TIGIT. Kind of test: Biacore SPR.
Regarding B6, the affinity, expressed as Kd, was 228 pM.
Regarding B7, the Kd turned out to be 52.3 pM.
Still for that read-out and setting: then B8, with 283 pM.
Still for that read-out and setting: the value for B9 was 51.9 pM.

Another test deals with cynomolgus TIGIT. Kind of test: Biacore SPR.
Sequence of cynomolgus TIGIT (chain, as listed by the source): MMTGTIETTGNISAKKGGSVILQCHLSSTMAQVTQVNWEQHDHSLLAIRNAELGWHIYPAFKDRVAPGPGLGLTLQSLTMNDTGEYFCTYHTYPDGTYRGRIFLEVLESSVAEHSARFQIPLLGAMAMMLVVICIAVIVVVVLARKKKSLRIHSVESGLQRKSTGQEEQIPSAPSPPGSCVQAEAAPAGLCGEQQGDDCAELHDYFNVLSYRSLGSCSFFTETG
The molecule B6 gave a Kd of 25000 pM.
The molecule B7 had a dissociation constant (Kd) of 34700 pM.
Still for that read-out and setting: then B8, with 9390 pM; and B9, with 13000 pM.
